Test results from the Immune Epitope Database (IEDB).

Experiments:
[1] = target: HLA-B*57:01; assay: IEDB peptide-MHC binding, purified MHC/competitive/fluorescence; filed as Kd, often an IC50 or EC50 that approximates it; ≥ and ≤ were set here for values at or beyond the usual limits of such assays
[2] = target: HLA-B*46:01; assay: as above
[3] = target: HLA-B*39:01; assay: as above
[4] = target: HLA-B*27:20; assay: as above; details: source organism: Cryptosporidium parvum Iowa II
[5] = target: HLA-A*02:12; assay: as above
[6] = target: HLA-A*03:01; assay: as above
[7] = target: HLA-B*27:03; assay: as above
[8] = target: HLA-B*18:01; assay: as above
[9] = target: HLA-A*26:01; assay: as above
[10] = target: HLA-B*15:42; assay: as above
[11] = target: HLA-A*02:11; assay: as above
[12] = target: HLA-B*83:01; assay: as above
[13] = target: HLA-A*02:19; assay: as above
[14] = target: HLA-A*68:02; assay: as above
[15] = target: HLA-A*03:19; assay: as above; details: source organism: Cryptosporidium parvum Iowa II
[16] = target: HLA-B*45:06; assay: as above
[17] = target: HLA-A*69:01; assay: as above
[18] = target: HLA-A*29:02; assay: as above
[19] = target: HLA-A*02:01; assay: IEDB peptide-MHC binding, purified MHC/competitive/radioactivity; ≥ and ≤ were set here for values at or beyond the usual limits of such assays; details: source organism: Homo sapiens
[20] = target: HLA-A*80:01; assay: IEDB peptide-MHC binding, purified MHC/competitive/fluorescence; filed as Kd, often an IC50 or EC50 that approximates it; ≥ and ≤ were set here for values at or beyond the usual limits of such assays; details: source organism: Yersinia pestis Nepal516
[21] = target: HLA-A*02:16; assay: as above; details: source organism: Yersinia pestis Nepal516
[22] = target: HLA-A*02:01; assay: as above; details: source organism: Yersinia pestis Nepal516
[23] = target: HLA-B*51:01; assay: as above; details: source organism: Yersinia pestis Nepal516
[24] = target: HLA-B*15:17; assay: as above; details: source organism: Yersinia pestis Nepal516
[25] = target: HLA-A*02:03; assay: as above; details: source organism: Yersinia pestis Nepal516
[26] = target: HLA-B*15:01; assay: as above; details: source organism: Yersinia pestis Nepal516
[27] = target: HLA-A*25:01; assay: as above; details: source organism: Yersinia pestis Nepal516
[28] = target: HLA-A*02:01; assay: IEDB peptide-MHC binding, cellular MHC/competitive/fluorescence; filed as Kd, often an IC50 or EC50 that approximates it; ≥ and ≤ were set here for values at or beyond the usual limits of such assays; details: source organism: Homo sapiens
[29] = target: HLA-C*15:02; assay: IEDB peptide-MHC binding, purified MHC/direct/fluorescence; filed as Kd, often an IC50 or EC50 that approximates it; ≥ and ≤ were set here for values at or beyond the usual limits of such assays; details: source organism: Entamoeba histolytica HM-1:IMSS
[30] = target: HLA-A*68:23; assay: IEDB peptide-MHC binding, purified MHC/competitive/fluorescence; filed as Kd, often an IC50 or EC50 that approximates it; ≥ and ≤ were set here for values at or beyond the usual limits of such assays; details: source organism: Entamoeba histolytica HM-1:IMSS
[31] = target: HLA-C*14:02; assay: as above; details: source organism: Entamoeba histolytica HM-1:IMSS
[32] = target: HLA-A*32:15; assay: as above; details: source organism: Entamoeba histolytica HM-1:IMSS
[33] = target: HLA-B*44:02; assay: IEDB peptide-MHC binding, purified MHC/direct/fluorescence; filed as Kd, often an IC50 or EC50 that approximates it; ≥ and ≤ were set here for values at or beyond the usual limits of such assays; details: source organism: Giardia lamblia ATCC 50803
[34] = target: HLA-B*08:01; assay: as above; details: source organism: Giardia lamblia ATCC 50803
[35] = target: HLA-A*02:01; assay: as above; details: source organism: Giardia lamblia ATCC 50803
[36] = target: HLA-A*31:01; assay: as above; details: source organism: Giardia lamblia ATCC 50803
[37] = target: HLA-A*24:03; assay: as above; details: source organism: Giardia lamblia ATCC 50803
[38] = target: HLA-A*03:01; assay: as above; details: source organism: Giardia lamblia ATCC 50803
[39] = target: HLA-A*01:01; assay: as above; details: source organism: Giardia lamblia ATCC 50803
[40] = target: HLA-A*30:01; assay: as above; details: source organism: Giardia lamblia ATCC 50803
[41] = target: HLA-A*26:01; assay: as above; details: source organism: Giardia lamblia ATCC 50803
[42] = target: HLA-B*27:05; assay: as above; details: source organism: Giardia lamblia ATCC 50803
[43] = target: HLA-B*58:01; assay: as above; details: source organism: Giardia lamblia ATCC 50803
[44] = target: HLA-B*40:01; assay: as above; details: source organism: Giardia lamblia ATCC 50803
[45] = target: HLA-A*69:01; assay: as above; details: source organism: Giardia lamblia ATCC 50803
[46] = target: HLA-B*15:01; assay: as above; details: source organism: Giardia lamblia ATCC 50803
[47] = target: HLA-A*11:01; assay: as above; details: source organism: Giardia lamblia ATCC 50803
[48] = target: HLA-B*07:02; assay: as above; details: source organism: Giardia lamblia ATCC 50803
[49] = source organism: Cryptosporidium parvum Iowa II
[50] = source organism: Yersinia pestis Nepal516
[51] = source organism: Entamoeba histolytica HM-1:IMSS

Question: Which Kd [1, 49] does the source give for RIYKRSLKL here?
Answer: ≥ 20 µM

Question: What about the Kd [2, 49] of the same sequence?
Answer: ≥ 20 µM

Question: What about the Kd [3, 49] of the same sequence?
Answer: ≥ 20 µM

Question: What about the Kd [4] of the same sequence?
Answer: 29.3 nM

Question: What about the Kd [5, 49] of the same sequence?
Answer: ≥ 20 µM

Question: And the Kd [6, 49]?
Answer: 18.9 nM

Question: What about the Kd [7, 49] of the same sequence?
Answer: ≥ 20 µM

Question: And the Kd [8, 49]?
Answer: ≥ 20000 nM

Question: What about the Kd [9, 49] of the same sequence?
Answer: ≥ 20 µM

Question: And the Kd [10, 49]?
Answer: 2190 nM

Question: And the Kd [11, 49]?
Answer: ≥ 20 µM

Question: What about the Kd [12, 49] of the same sequence?
Answer: ≥ 5 µM

Question: What about the Kd [13, 49] of the same sequence?
Answer: ≥ 20 µM

Question: What about the Kd [14, 49] of the same sequence?
Answer: ≥ 20 µM

Question: What about the Kd [15] of the same sequence?
Answer: 14.1 nM

Question: And the Kd [16, 49]?
Answer: ≥ 5 µM

Question: What about the Kd [17, 49] of the same sequence?
Answer: ≥ 20 µM

Question: And the Kd [18, 49]?
Answer: ≥ 20 µM

Question: With KMDSFLDMQL as the sequence, how does the IC50 [19] read?
Answer: 11.4 nM

Question: How did the Kd [1, 50] turn out when LELIGNAES was run?
Answer: ≥ 20 µM

Question: And the Kd [2, 50]?
Answer: ≥ 20 µM

Question: And the Kd [20]?
Answer: ≥ 20 µM

Question: And the Kd [21]?
Answer: ≥ 20 µM

Question: What about the Kd [3, 50] of the same sequence?
Answer: ≥ 20 µM

Question: What about the Kd [5, 50] of the same sequence?
Answer: ≥ 20 µM

Question: And the Kd [22]?
Answer: ≥ 20 µM

Question: What about the Kd [6, 50] of the same sequence?
Answer: ≥ 20000 nM

Question: What about the Kd [7, 50] of the same sequence?
Answer: ≥ 20 µM

Question: What about the Kd [23] of the same sequence?
Answer: ≥ 20 µM

Question: And the Kd [8, 50]?
Answer: 921 nM

Question: What about the Kd [24] of the same sequence?
Answer: ≥ 20 µM

Question: And the Kd [9, 50]?
Answer: ≥ 20 µM

Question: What about the Kd [25] of the same sequence?
Answer: ≥ 20 µM

Question: What about the Kd [11, 50] of the same sequence?
Answer: ≥ 20 µM

Question: And the Kd [13, 50]?
Answer: ≥ 20 µM

Question: What about the Kd [14, 50] of the same sequence?
Answer: ≥ 20 µM

Question: What about the Kd [17, 50] of the same sequence?
Answer: ≥ 20 µM

Question: What about the Kd [26] of the same sequence?
Answer: ≥ 20 µM

Question: And the Kd [27]?
Answer: ≥ 20 µM

Question: And the Kd [18, 50]?
Answer: ≥ 20 µM

Question: KLVVVGAGGV was tested. Which Kd [28] did it give?
Answer: ≥ 156 µM

Question: Which results are given for YIISTHYQF?
Answer: Kd [29]: 1940 nM; Kd [30]: 204 nM; Kd [10, 51]: ≥ 5000 nM; Kd [31]: 158 nM; Kd [12, 51]: 5.79 µM; Kd [32]: 213 nM; Kd [16, 51]: ≥ 5 µM; Kd [18, 51]: 0.0003 µM

Question: What does the source list for KTPWDRFCK?
Answer: Kd [33]: ≥ 20 µM; Kd [34]: ≥ 20 µM; Kd [35]: ≥ 20 µM; Kd [36]: 95.7 nM; Kd [37]: 6.93 µM; Kd [38]: 3.63 µM; Kd [39]: ≥ 20 µM; Kd [40]: 21.8 nM; Kd [41]: ≥ 20 µM; Kd [42]: ≥ 20 µM; Kd [43]: ≥ 20 µM; Kd [44]: ≥ 20 µM; Kd [45]: ≥ 20 µM; Kd [46]: ≥ 20 µM; Kd [47]: 64.1 nM; Kd [48]: ≥ 20 µM
